Experimental data published in patent publication US20250152742A1, “COMPOSITIONS AND METHODS FOR NEUROLOGICAL DISEASES” (Trames Bio, Inc., priority 2022, published 2025).

System: engineered chimeric receptor SEQ ID NO: 33 and its mutants (human α7-nAChR ligand binding domain / human GlyRα1 ion pore domain) in Lenti-X 293T cells
Test: YFP fluorescence quenching anion reporter plate reader assay (percent quench, EC50)
Format: cell-based
Details: for YFP fluorescence quenching using CNL001 (percent quench): receptor named in row; for YFP fluorescence quenching using Facinicline, 30 nM fac: ligand Facinicline 30 nM; for YFP fluorescence quenching using Facinicline, 300 nM fac: ligand Facinicline 300 nM; for YFP fluorescence quenching using Facinicline, 30 uM fac: ligand Facinicline 30 uM; for YFP fluorescence quenching using TC-6987, 1 uM tc6987: ligand TC-6987 1 uM; for YFP fluorescence quenching using TC-6987, 10 uM tc6987: ligand TC-6987 10 uM; for YFP fluorescence quenching using TC-6987, 500 uM tc6987: ligand TC-6987 500 uM; for YFP fluorescence quenching using Varenicline, 3 nM var: ligand Varenicline 3 nM; for YFP fluorescence quenching using Varenicline, 30 nM var: ligand Varenicline 30 nM; for YFP fluorescence quenching using Varenicline, 300 nM var: ligand Varenicline 300 nM; for YFP fluorescence quenching using Varenicline, 500 nM var: ligand Varenicline 500 nM; for YFP fluorescence quenching using Varenicline, 1 uM var: ligand Varenicline 1 uM
From the text: To screen these mutant LGICs for those having novel response profiles to ligands, an anion reporter assay was developed to assess the function of the LGICs in a high throughput format. In this assay, cells expressing a YFP reporter whose fluorescence is quenched in the presence of anion are transfected with DNA encoding the channel of interest. Upon exposure to ligand, channels that are activated will flux anion, resulting in a dose-dependent quench of the YFP that can be detected on a plate reader. The greater the quench signal (i.e., the more positive the value), the higher the ligand activity on the receptor is.
Lenti-X 293T cells (LX293T, Clontech) were maintained in DMEM containing 10% FBS and 1% penicillin/streptomycin (Invitrogen). […] Two days before assay, cells were split at a density of 20,000 cells/well in a 96-well tissue culture plate coated with poly-d lysine (Thermo Scientific). The next day, the cells were transiently transfected with 0.1 μg of DNA per well using standard Fugene protocol (Promega). On the day of assay, cells were washed 2 times in 1X extracellular solution (1X ECS: 140 mM NaCl, 5 mM KCl, 1 mM MgCl2, 2 mM CaCl2, 10 mM HEPES, 10 mM glucose, pH 7.2, mOsms 300). After the last wash, 100 μL of 1X ECS was added to the wells and the plate was incubated at 37° C. for 30 min. While incubating the plate, the drugs were diluted to a 2X concentration in 1X ECS-Nal (same components as 1X ECS except the 140 mM NaCl was replaced by 140 mM Nal). The plates were then read on a Flexstation3 (Molecular Devices). Each well, 8 wells at a time, of the plate is read for 2 min using a Flexstation3 (Molecular Devices) as follows: 1) a baseline YFP fluorescence is read for 17 sec, 2) 100 μL of ligand is added, and 3) the changes in YFP fluorescence are then measured every 1.3 sec for 1 minute and 43 seconds. The percent quench is calculated from the average fluorescence of the last 10 seconds of the read divided by the baseline average of the first 15 seconds prior to the ligand addition.
FIGS. 1A-1J provide heat maps of the percent quench of YFP fluorescence following stimulation by various doses of either acetylcholine or the non-native ligand as indicated in the Figures. CODA71 (SEQ ID NO: 33) was used as a control, and CODA75 (SEQ ID NO: 29, a non-responding chimeric engineered receptor) was used as the negative control. Quenching of the fluorescence signal, as indicated by blue shaded cells, indicate the level of engineered receptor activation by the non-native ligand at that concentration.

[1] = 1 nM CNL001, first column so headed
[2] = 1 nM CNL001, second column so headed
[3] = 3 nM brd (TC-5619/Bradanicline)
[4] = 10 nM CNL001, first column so headed
[5] = 10 nM CNL001, second column so headed
[6] = 30 nM brd (TC-5619/Bradanicline)
[7] = 50 nM CNL001, first column so headed
[8] = 50 nM CNL001, second column so headed
[9] = 100 nM CNL001, first column so headed
[10] = 100 nM CNL001, second column so headed
[11] = 300 nM brd (TC-5619/Bradanicline)
[12] = 1 uM CNL001, first column so headed
[13] = 1 uM CNL001, second column so headed

B1: CODA283: engineered receptor: Y115E_N379K in SEQ ID NO: 33 (protein)
chain: MRCSPGGVWLALAASLLHVSLQGEFQRKLYKELVKNYNPLERPVANDSQPLTVYFSLSLLQIMDVDEKNQVLTTNIWLQMSWTDHYLQWNVSEYPGVKTVRFPDGQIWKPDILLENSADERFDATFHTNVLVNSSGHCQYLPPGIFKSSCPMDLKNFPMDVQTCKLKFGSWSYGGWSLDLQMQEADISGYIPNGEWDLVGIPGKRSERFYECCKEPYPDVTFTVTMRRRMGYYLIQMYIPSLLIVILSWISFWINMDAAPARVGLGITTVLTMTTQSSGSRASLPKVSYVKAIDIWMAVCLLFVFSALLEYAAVNFVSRQHKELLRFRRKRRHHKSPMLNLFQEDEAGEGRFNFSAYGMGPACLQAKDGISVKGANNSKTTNPPPAPSKSPEEMRKLFIQRAKKIDKISRIGFPMAFLIFNMFYWIIYKIVRREDVHNQ
modifications: synthetic sequence of chimeric LGIC
YFP fluorescence quenching using CNL001 (percent quench) [1]: −0.713%
YFP fluorescence quenching using CNL001 (percent quench) [2]: −0.621%
YFP fluorescence quenching using TC-5619/Bradanicline (percent quench) (1 nM brd (TC-5619/Bradanicline)): 0.59%
YFP fluorescence quenching using TC-5619/Bradanicline (percent quench) [3]: −6.41%
YFP fluorescence quenching using CNL001 (percent quench) [4]: 7.739%
YFP fluorescence quenching using CNL001 (percent quench) [5]: 15.277%
YFP fluorescence quenching using TC-5619/Bradanicline (percent quench) (10 nM brd (TC-5619/Bradanicline)): −1.58%
YFP fluorescence quenching using TC-5619/Bradanicline (percent quench) [6]: −14.24%
YFP fluorescence quenching using CNL001 (percent quench) [7]: 19.489%
YFP fluorescence quenching using CNL001 (percent quench) [8]: 33.703%
YFP fluorescence quenching using ABT-126 (percent quench) (50 nM abt (ABT-126)): −22.65%
YFP fluorescence quenching using CNL001 (percent quench) [9]: 56.886%
YFP fluorescence quenching using CNL001 (percent quench) [10]: 60.171%
YFP fluorescence quenching (percent quench) (100 nM CNL002): −5.81%
YFP fluorescence quenching using ABT-126 (percent quench) (100 nM abt (ABT-126)): −20.55%
YFP fluorescence quenching using AZD-0328 (percent quench) (100 nM azd0328): −2.1%
YFP fluorescence quenching using TC-5619/Bradanicline (percent quench) (100 nM brd (TC-5619/Bradanicline)): 33.36%
YFP fluorescence quenching using ABT-126 (percent quench) (300 nM abt (ABT-126)): −12.93%
YFP fluorescence quenching using AZD-0328 (percent quench) (300 nM azd0328): 38.2%
YFP fluorescence quenching using TC-5619/Bradanicline (percent quench) [11]: 43.81%
YFP fluorescence quenching using CNL001 (percent quench) [12]: 69.836%
YFP fluorescence quenching using CNL001 (percent quench) [13]: 73.855%
YFP fluorescence quenching (percent quench) (1 uM CNL002): 9.69%
YFP fluorescence quenching using ABT-126 (percent quench) (1 uM abt (ABT-126)): 1.71%
YFP fluorescence quenching using TC-5619/Bradanicline (percent quench) (1 uM brd (TC-5619/Bradanicline)): 75.39%
YFP fluorescence quenching (percent quench) (10 uM ach (acetylcholine)): −6.16%
YFP fluorescence quenching (percent quench) (30 uM CNL002): −12.85%
YFP fluorescence quenching using AZD-0328 (percent quench) (30 uM azd0328): 79.44%
YFP fluorescence quenching (percent quench) (100 uM ach (acetylcholine)): −11.12%
YFP fluorescence quenching (percent quench) (1 mM ach (acetylcholine)): −2.74%
YFP fluorescence quenching (percent quench) (3 mM ach (acetylcholine)): 53.61%
YFP fluorescence quenching using Facinicline, 30 nM fac: 6.39
YFP fluorescence quenching using Facinicline, 300 nM fac: 78.36
YFP fluorescence quenching using Facinicline, 10 uM fac (ligand Facinicline 10 uM): 81.93
YFP fluorescence quenching using Facinicline, 30 uM fac: 78.63
YFP fluorescence quenching using TC-6987, 1 uM tc6987: −9.54
YFP fluorescence quenching using TC-6987, 10 uM tc6987: −7.06
YFP fluorescence quenching using TC-6987, 500 uM tc6987: −15.15

B2: CODA325: engineered receptor: L131G in SEQ ID NO: 33 (protein)
chain: MRCSPGGVWLALAASLLHVSLQGEFQRKLYKELVKNYNPLERPVANDSQPLTVYFSLSLLQIMDVDEKNQVLTTNIWLQMSWTDHYLQWNVSEYPGVKTVRFPDGQIWKPDILLYNSADERFDATFHTNVGVNSSGHCQYLPPGIFKSSCPMDLKNFPMDVQTCKLKFGSWSYGGWSLDLQMQEADISGYIPNGEWDLVGIPGKRSERFYECCKEPYPDVTFTVTMRRRMGYYLIQMYIPSLLIVILSWISFWINMDAAPARVGLGITTVLTMTTQSSGSRASLPKVSYVKAIDIWMAVCLLFVFSALLEYAAVNFVSRQHKELLRFRRKRRHHKSPMLNLFQEDEAGEGRFNFSAYGMGPACLQAKDGISVKGANNSNTTNPPPAPSKSPEEMRKLFIQRAKKIDKISRIGFPMAFLIFNMFYWIIYKIVRREDVHNQ
modifications: synthetic sequence of chimeric LGIC
YFP fluorescence quenching using CNL001 (percent quench) [1]: 74.429%
YFP fluorescence quenching using CNL001 (percent quench) [2]: 78.715%
YFP fluorescence quenching using TC-5619/Bradanicline (percent quench) [3]: 68.45%
YFP fluorescence quenching using CNL001 (percent quench) [4]: 79.033%
YFP fluorescence quenching using CNL001 (percent quench) [5]: 79.322%
YFP fluorescence quenching using TC-6683 (percent quench) (30 nM TC-6683): −21.27%
YFP fluorescence quenching using TC-5619/Bradanicline (percent quench) [6]: 76.95%
YFP fluorescence quenching using CNL001 (percent quench) [7]: 79.966%
YFP fluorescence quenching using CNL001 (percent quench) [8]: 80.091%
YFP fluorescence quenching using ABT-126 (percent quench) (50 nM abt (ABT-126)): −17.39%
YFP fluorescence quenching using CNL001 (percent quench) [9]: 81%
YFP fluorescence quenching using CNL001 (percent quench) [10]: 79.701%
YFP fluorescence quenching (percent quench) (100 nM CNL002): 45.62%
YFP fluorescence quenching using ABT-126 (percent quench) (100 nM abt (ABT-126)): 6.89%
YFP fluorescence quenching using AZD-0328 (percent quench) (100 nM azd0328): 79.75%
YFP fluorescence quenching using TC-6683 (percent quench) (300 nM TC-6683): −18.33%
YFP fluorescence quenching using ABT-126 (percent quench) (300 nM abt (ABT-126)): 38.65%
YFP fluorescence quenching using AZD-0328 (percent quench) (300 nM azd0328): 80.62%
YFP fluorescence quenching using TC-5619/Bradanicline (percent quench) [11]: 77.1%
YFP fluorescence quenching using CNL001 (percent quench) [12]: 79.289%
YFP fluorescence quenching using CNL001 (percent quench) [13]: 80.581%
YFP fluorescence quenching (percent quench) (1 uM CNL002): 74.72%
YFP fluorescence quenching using ABT-126 (percent quench) (1 uM abt (ABT-126)): 45.82%
YFP fluorescence quenching using TC-6683 (percent quench) (3 uM TC-6683): −7.03%
YFP fluorescence quenching (percent quench) (10 uM ach (acetylcholine)): 5.66%
YFP fluorescence quenching (percent quench) (30 uM CNL002): 77.4%
YFP fluorescence quenching using TC-6683 (percent quench) (30 uM TC-6683): 56.84%
YFP fluorescence quenching using AZD-0328 (percent quench) (30 uM azd0328): 80.19%
YFP fluorescence quenching using TC-6683 (percent quench) (100 uM TC-6683): 64.51%
YFP fluorescence quenching (percent quench) (100 uM ach (acetylcholine)): 74.07%
YFP fluorescence quenching (percent quench) (1 mM ach (acetylcholine)): 62.65%
YFP fluorescence quenching (percent quench) (3 mM ach (acetylcholine)): 69.49%
YFP fluorescence quenching using Facinicline, 30 nM fac: 75.75
YFP fluorescence quenching using Facinicline, 300 nM fac: 78.01
YFP fluorescence quenching using Facinicline, 30 uM fac: 76.61
YFP fluorescence quenching using TC-6987, 1 uM tc6987: 64.59
YFP fluorescence quenching using TC-6987, 10 uM tc6987: 76.28
YFP fluorescence quenching using TC-6987, 500 uM tc6987: 70.95
YFP fluorescence quenching using Varenicline, 3 nM var (first column): −12.241
YFP fluorescence quenching using Varenicline, 3 nM var (second column): −9.415
YFP fluorescence quenching using Varenicline, 30 nM var (first column): 75.334
YFP fluorescence quenching using Varenicline, 30 nM var (second column): 72.278
YFP fluorescence quenching using Varenicline, 300 nM var (first column): 78.305
YFP fluorescence quenching using Varenicline, 300 nM var (second column): 77.83
YFP fluorescence quenching using Varenicline, 500 nM var (first column): 75.936
YFP fluorescence quenching using Varenicline, 500 nM var (second column): 76.788
YFP fluorescence quenching using Varenicline, 1 uM var (first column): 77.805
YFP fluorescence quenching using Varenicline, 1 uM var (second column): 77.352
